From US20170058268

What was measured:
Assay in all cases: cell_activity
Details in all cases: E. coli, bisulfite
[1] = target: Split M.SssI (1-272)-HS1 / HS2-M.SssI (273-386), 'wild-type' KFNSE at 297-301 (Spiroplasma sp. (M.SssI)?) (UniProt P15840)
[2] = target: Split M.SssI-HS1/HS2 variant CFESY K297C,N299E,E301Y (Spiroplasma sp. (M.SssI)?) (UniProt P15840)
[3] = target: Split M.SssI-HS1/HS2 variant PFCSY K297P,N299C,E301Y (Spiroplasma sp. (M.SssI)?) (UniProt P15840+P15840)
Sequence of Split M.SssI-HS1/HS2 variant PFCSY K297P,N299C,E301Y (Spiroplasma sp. (M.SssI)?) (P15840 whole entry, stated change not applied, chain 1 of 2): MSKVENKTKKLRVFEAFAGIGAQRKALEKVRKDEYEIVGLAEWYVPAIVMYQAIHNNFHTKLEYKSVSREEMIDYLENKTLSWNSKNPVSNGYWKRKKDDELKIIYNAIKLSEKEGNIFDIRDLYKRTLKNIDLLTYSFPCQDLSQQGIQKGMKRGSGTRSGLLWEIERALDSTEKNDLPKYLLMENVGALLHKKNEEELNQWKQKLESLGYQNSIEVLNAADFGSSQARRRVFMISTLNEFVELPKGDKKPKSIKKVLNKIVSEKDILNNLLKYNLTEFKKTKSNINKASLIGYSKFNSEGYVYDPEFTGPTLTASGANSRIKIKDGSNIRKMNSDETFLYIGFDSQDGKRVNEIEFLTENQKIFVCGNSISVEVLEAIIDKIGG
Sequence of Split M.SssI-HS1/HS2 variant PFCSY K297P,N299C,E301Y (Spiroplasma sp. (M.SssI)?) (P15840 whole entry, stated change not applied, chain 2 of 2): as the sequence (P15840 whole entry, stated change not applied, chain 1 of 2) above

Sequence of Split M.SssI (1-272)-HS1 / HS2-M.SssI (273-386), 'wild-type' KFNSE at 297-301 (Spiroplasma sp. (M.SssI)?) (P15840 other isoform, or with tags, fused parts or gaps, chain 1 of 2): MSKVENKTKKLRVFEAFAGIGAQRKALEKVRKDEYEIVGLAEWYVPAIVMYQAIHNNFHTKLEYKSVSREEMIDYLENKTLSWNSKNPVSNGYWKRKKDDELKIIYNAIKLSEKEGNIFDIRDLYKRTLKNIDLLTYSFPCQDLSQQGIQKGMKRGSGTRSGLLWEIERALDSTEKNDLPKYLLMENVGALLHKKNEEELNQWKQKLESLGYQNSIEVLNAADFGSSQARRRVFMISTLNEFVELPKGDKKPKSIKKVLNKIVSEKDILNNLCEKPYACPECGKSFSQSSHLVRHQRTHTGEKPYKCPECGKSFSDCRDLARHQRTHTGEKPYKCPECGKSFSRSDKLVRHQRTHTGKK
Sequence of Split M.SssI (1-272)-HS1 / HS2-M.SssI (273-386), 'wild-type' KFNSE at 297-301 (Spiroplasma sp. (M.SssI)?) (P15840 other isoform, or with tags, fused parts or gaps, chain 2 of 2): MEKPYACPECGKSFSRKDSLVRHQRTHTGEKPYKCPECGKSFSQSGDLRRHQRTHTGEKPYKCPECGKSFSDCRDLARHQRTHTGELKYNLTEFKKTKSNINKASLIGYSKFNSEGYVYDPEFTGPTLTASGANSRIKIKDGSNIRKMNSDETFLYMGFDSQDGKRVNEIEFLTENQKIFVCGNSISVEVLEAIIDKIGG
Sequence of Split M.SssI-HS1/HS2 variant CFESY K297C,N299E,E301Y (Spiroplasma sp. (M.SssI)?) (P15840 other isoform, or with tags, fused parts or gaps K297C N299E E301Y, chain 1 of 2): as the sequence (P15840 other isoform, or with tags, fused parts or gaps, chain 1 of 2) above
Sequence of Split M.SssI-HS1/HS2 variant CFESY K297C,N299E,E301Y (Spiroplasma sp. (M.SssI)?) (P15840 other isoform, or with tags, fused parts or gaps K297C N299E E301Y, chain 2 of 2): as the sequence (P15840 other isoform, or with tags, fused parts or gaps, chain 2 of 2) above, with K111C, N113E, E115Y counted along it

Substance	activity ([1]; all off-target CpGs)	activity ([2]; all off-target CpGs)	activity ([3]; all off-target CpGs)	activity [1]	activity ([2]; 70-80% by restriction protection, also target-only methylation in HEK293)	activity [3]
Non-target site (SnaBI CpG or surrounding CpGs, no ZF sites, plasmid)	49.5 % methylated	0.71 % methylated	0.84 % methylated	–	–	–
HS1/HS2 target site (FspI CpG flanked by HS1 and HS2 sites, plasmid)	–	–	–	94.1 % methylated	42.1 % methylated	78.9 % methylated
